B1: monomeric Fab of mAb 3H4 (Fab, V domains shown)
VH: QIQLQQSGPELVKPGASVKISCKASGYTFTDYYINWVKQKPGQGLEWIGWIYPGSVNTKYNEKFRGKATLTVDTSSSTAYIQLSGLTSEDTAVYFCARYSNWFFDVWGAGTAVTVS
VL: DIVMTQSPSSLSASLGERVSLTCRASQEISGYLSWLQQKPDGTIKRLIYAASTLDSGVPKRFSGSRSGSDYSLSISSLESEDFADYYCLQYASYPYTFGGGTKLEIKR
notes: also called 3H4 Fab
B2: monomeric Fab of mAb 1.8A10 (Fab, V domains shown)
VH: EVQLVESGGGLVKPGGSLKLSCAASGFTFSNYDMSWIRQTPEKRLEWVAYISGGGGNTYYPDTLKGRFTISRDNAKNTLYLQMSSLKSEDTAMFYCVRISLTGIFDYWGQGTTLTVSS
VL: DVLMTQTPLSLPVSLGDQASISCRSSQSIVQSNGNTYLEWYLQKPGQSPKLLIYKVSNRFSGVPDRFSGSGSGTDFTLKISRVEAEDLGVYYCFQGSHVPWTFGGGTKLEIKR
notes: also called 1.8A10 Fab
B3: monomeric Fab of mAb 1B8 (Fab, V domains shown)
VH: EVQLVLSGGGFVQPGGSLKLSCAASGFTFSSYAMSWVRQNPERRLVWVATITGGGRNTYYPDSVKGRFTISRDNAKNTLYLQMSSLRSEDTAMYYCTRQGYDGYTWFAYWGQGTLVTVS
VL: not shown
notes: also called 1B8 Fab
B4: mAb 1G7 (antibody, V domains shown)
VH: EIQLQQSGPELVKPGASVKVSCKASGYAFTSYNIYWVKQSHGKSLEWIGYIDLYNGDTSYNEKFKGKATLTVDKSASTAYMHLNSLTSEDSAVYYCSREGRLSFDYWGQGTLVTVSA
VL: DIVLTQSPASLAVSLGQRATISCRASESVDSYGNSFMNWYQQKPGQPLKLLIYLASNLDSGVPARFSGSGSGTDFSLTIDPVEADDPATYYCQQNNEVPLTFGAGTKLELKR
notes: Murine IgG from a hybridoma
B5: mAb 1.8A10 (antibody, V domains shown)
VH: B2 VH
VL: B2 VL
notes: Murine IgG from a hybridoma
B6: mAb 20B3.1 (antibody, V domains shown)
VH: EVKLVESGGGLVKPGGSLKLSCAASGFTFSSFGMSWVRQTPEKRLEWVATISGGGSNTYYPDSVKGRFTISRDNAKNNLYLQMTSLTSEDTALYYCTRIYDVAWFAYWGQGTLVTVS
VL: not shown
notes: Murine IgG from a hybridoma
B7: mAb 7G3 (antibody, V domains shown)
VH: QVQLQQSGTELVRPGVSVKISCKGSGYSFTDYALHWMKQSHAKSLEWIGVISTHYGDTVYNQRFKGKATMTVDKSSSTAYMELARLTSEDSAIYYCAREGYGSLFYFDQWGQGTPLTVS
VL: CLMTQTPLSLPVSLGDQASISCRSSQTIVHSDGNTYLEWYLQKSGQSPKLLIYKVSNRFSGVPDRFSGSGSGTDFTLKISRVEAEDLGVYYCFQGSHVPYTFGGGTRLEIRR
notes: Murine IgG from a hybridoma
B8: mAb 1B8 (antibody, V domains shown)
VH: B3 VH
VL: not shown
notes: Murine IgG from a hybridoma; also called murine 1B8; fully murine 1B8 mAb
B9: mAb 3H4 (antibody, V domains shown)
VH: B1 VH
VL: B1 VL
notes: Murine IgG from a hybridoma
B10: mAb 2.3A9 (antibody, V domains shown)
VH: QVQLQQSDAELVKPGTSVKISCKASGYTFTDHAIHWLKQEPDQGLEWIGYISPGYGDIEYNEKFKGKATLTADKSSSTAYMQLSSLTSEDSAVYFCKVTTGYWGQGTTLTVS
VL: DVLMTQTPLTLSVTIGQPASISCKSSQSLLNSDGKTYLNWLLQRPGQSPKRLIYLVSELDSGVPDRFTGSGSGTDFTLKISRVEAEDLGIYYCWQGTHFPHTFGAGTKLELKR
notes: Murine IgG from a hybridoma

Each binder was assayed against T1, recombinant human PD-1/Fc fusion protein (R&D Systems) (human, UniProt Q15116 25-167) (assay: SPR (Biacore T100), monomeric Fab over covalently immobilised PD-1/Fc; range of fit Kd).
T1 construct: Bought protein; also called immobilized PD-1; not shown: human Fc portion of the bought fusion protein
T1 sequence (Q15116 25-167 limits assumed): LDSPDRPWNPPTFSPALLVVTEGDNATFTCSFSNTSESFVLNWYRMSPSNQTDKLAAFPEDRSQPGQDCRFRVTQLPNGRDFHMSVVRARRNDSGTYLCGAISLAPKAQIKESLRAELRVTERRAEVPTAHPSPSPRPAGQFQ
Text: Fractions from the purification column were collected and tested in the Caliper LabChip® system. Only fractions containing pure monomeric Fabs were selected for SPR analysis. Beginning with concentrations determined from the Caliper LabChip®, dilution series were made for each Fab and tested on a Biacore® T100 with the standard kinetic affinity wizard against covalently immobilized PD-1/Fc fusion protein.
B1 gave a Kd of 63 to 77 nM.
B2 showed a Kd of 34 to 43 nM.
Binder B3 has a Kd of 5.3 to 7 nM.

These binders were tested against T2, rhesus PD-1 naturally expressed on activated rhesus CD4+ cells (rhesus macaque, UniProt B0LAJ2 25-288) (assay: inhibition of recombinant PD-L1/Fc binding to activated rhesus CD4+ cells by 0.2 ug/ml IgG, 37 C (mean of 2)).
T2 sequence (B0LAJ2 entry or part of it limits assumed): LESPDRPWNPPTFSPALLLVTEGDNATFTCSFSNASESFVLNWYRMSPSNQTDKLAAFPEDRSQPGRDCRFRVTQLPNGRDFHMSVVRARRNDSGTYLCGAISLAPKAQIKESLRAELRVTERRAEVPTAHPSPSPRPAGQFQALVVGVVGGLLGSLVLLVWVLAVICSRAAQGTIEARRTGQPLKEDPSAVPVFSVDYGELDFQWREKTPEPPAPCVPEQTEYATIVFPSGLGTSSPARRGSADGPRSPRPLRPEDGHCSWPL
Description: (§1) 293 cells were transfected to express PD-1 on their cell membranes. Human CD4⁺ cells were activated by incubation with anti-CD3/anti-CD28 beads (approximately 1 bead: 1-2 cells) for 48-72 hours at 37° C. Rhesus CD4⁺ cells (2×10⁶ cells/mL) were activated by incubation in plates coated with 1 μg/mL anti-CD3/anti-CD28 for 24-72 hours at 37° C.
In the case of B4, the “% inhibition” value is reported as 56.5%.
With B5 the “% inhibition” value was 24%.
B6 was tested, and the “% inhibition” value was 75.3%.
For B7, the “% inhibition” value was 25.5%.
With B8 the “% inhibition” value was 82.3%.

The binders below were run against T2, rhesus PD-1 naturally expressed on … (assay: cell binding; 1.0 ug/ml IgG on activated rhesus CD4+ cells, 37 C).
Description: as §1
In the case of B4, the MFI is reported as 812 MFI.
In the case of B5, the MFI is reported as 310 MFI.
B6 was tested, and the MFI was 1240 MFI.
In the case of B7, the MFI is reported as 655 MFI.
B8 gave an MFI of 1190 MFI.

Each binder was assayed against T3, homologous Fc (R&D Systems), Fc control surface (human, UniProt P01857-1 100-330 = IgG part, limits assumed) (assay: SPR (Biacore 2000), Fc immobilised on a CM5 chip).
T3 construct: domain: Fc; Counter-screen surface in the SPR assay; also called human Fc portion
Text: Biacore® instruments incorporate microfluidics technology and surface plasmon resonance (SPR). The angle of polarized light reflecting from the side of a gold-coated sensor opposite to the solution phase is a function of the evanescent wave extending into the solution phase and sensitive to the refractive index near that interface. This refractive index is proportional to the mass density of adsorbates (e.g., an antigen or antibody) near the sensor chip interface, and reported in Response Units. […] Time-resolved signals were acquired from all surfaces simultaneously, and the signal from the blank control surface was subtracted as a negative control.
B4: no binding (tested: 5 ug/mL (hybridoma supernatant)).
B9: no binding (tested: 5 ug/mL (hybridoma supernatant)).
B5: no binding (tested: 5 ug/mL (hybridoma supernatant)).
B10: no binding (tested: 5 ug/mL (hybridoma supernatant)).
B6: no binding (tested: 5 ug/mL (hybridoma supernatant)).
B7: no binding (tested: 5 ug/mL (hybridoma supernatant)).
B8: no binding (tested: 5 ug/mL (hybridoma supernatant)).

These binders were tested against T1, recombinant human PD-1/Fc fusion … (assay: solution-phase ELISA of IgG with PD-1/Fc; mean ± standard error of the mean).
Description: High-binding 96-well ELISA plates were coated with 50 μL 2 μg/mL PD-1/Fc overnight. After washing and blocking, 50 μL of each PD-1/Fc: IgG mixture was transferred to the ELISA plate, incubated for 30 minutes, washed, incubated with goat anti-mouse antibody conjugated to HRP (human absorbed) for one hour, washed, developed with 10-Acetyl-3,7-dihydroxyphenoxazine ([…]) for three minutes, and read on a fluorescent plate reader. All incubations occurred at room temperature. Data were analyzed as described in K. High et al. Several replicates were conducted on multiple plates and multiple days and analyzed independently to determine a range of experimental equilibrium affinity Kd values.
B9 showed a Kd of 0.011 nM.
B5 gave a Kd of 0.44 nM.
For B8, the Kd was 0.03 nM.

Each binder was assayed against T4, human PD-1 (Programmed Cell Death 1), expressed on cells (human, UniProt Q15116 25-288) (assay: inhibition of recombinant PD-L1/Fc binding to 293 cells expressing human PD-1 by 20 ug/ml IgG, 4 C).
T4 construct: also called human PD-1 on 293 cells
T4 sequence (Q15116 25-288 limits assumed): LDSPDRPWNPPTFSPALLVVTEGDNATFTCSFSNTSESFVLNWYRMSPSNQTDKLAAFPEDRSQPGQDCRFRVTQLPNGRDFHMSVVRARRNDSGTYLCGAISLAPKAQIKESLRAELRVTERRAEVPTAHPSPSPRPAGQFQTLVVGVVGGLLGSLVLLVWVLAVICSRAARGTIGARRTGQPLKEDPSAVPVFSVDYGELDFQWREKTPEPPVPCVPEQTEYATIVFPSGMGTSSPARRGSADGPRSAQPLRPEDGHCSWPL
Description: as §1
With B4 the “% inhibition” value was 98.8%.
With B5 the “% inhibition” value was 99.4%.
With B6 the “% inhibition” value was 98.2%.
For B7, the “% inhibition” value was 92.7%.
For B8, the “% inhibition” value was 97.6%.

These binders were tested against T4, human PD-1 (Programmed Cell Death 1), … (assay: inhibition of recombinant PD-L1/Fc binding to activated human CD4+ cells by 0.2 ug/ml IgG, 37 C (mean of 2)).
Description: as §1
With B4 the “% inhibition” value was 74.3%.
In the case of B5, the “% inhibition” value is reported as 51.7%.
With B6 the “% inhibition” value was 59.6%.
For B7, the “% inhibition” value was 57.8%.
For B8, the “% inhibition” value was 82.1%.

The binders below were run against T4, human PD-1 (Programmed Cell Death 1), … (assay: cell binding; 0.2 ug/ml IgG on activated human CD4+ cells, 37 C).
Description: as §1
With B4 the MFI was 137 MFI.
B9 showed an MFI of 130 MFI.
In the case of B5, the MFI is reported as 129 MFI.
B10 gave an MFI of 134 MFI.
In the case of B6, the MFI is reported as 154 MFI.
With B7 the MFI was 129 MFI.
B8 gave an MFI of 145 MFI.
